Laboratory results: patent publication US20250304717A1, “CAMPTOTHECIN DERIVATIVE AND LIGAND-DRUG CONJUGATE” (HAINAN SIMCERE ZAIMING PHARMACEUTICAL CO., LTD., priority 2022, published 2025)
Like-named read-outs stand apart in the source and are kept apart here.

Columns and labels:
[1] = target: human ROR1 on stably transfected cell strain MCF7-hROR1 clone 2G2 (human) (UniProt Q01973); assay: flow cytometry (FACS) on MCF7-hROR1 clone 2G2 cells, identification of the stably transfected clone
SKBR3 tumor cell = assay: Binding of anti-HER2 ADC and antibody with SKBR3 tumor cell by FACS; parameters: species or system human
Description: SKBR3 cells (from ATCC) were collected, counted, and plated in a 96-well plate (Corning, 3795) at 2×10^5 cells/well. The serially diluted sample to be detected was added and incubated at 4° C. for 1 h. After the mixture was washed twice with ice PBS, Alexa Fluor-647 goat anti-human Fc secondary antibody (JacksonImmuno, 109-605-098) was added, and the mixture was incubated at 4° C. for 1 h. After the mixture was washed twice with ice PBS, the cells were resuspended, and the mean fluorescence intensity (MFI) was analyzed using a flow cytometer (BD FACSCanto™ II). Data were analyzed by four-parameter curve fitting using Graphpad Prism software to give EC50 values.

[2] = 37° C., 100 μg/mL
Description: ADC molecules (final concentration: 100 μg/mL) were separately incubated with human plasma (Oribiotech, PB021-C) and monkey plasma (Shinuoda Bio, SND-X0107) in an incubator at 37° C. The day of incubation was defined as day 0. Samples were taken on days 7, 14 and 28 and tested for the free small molecule.
300 μL of an internal standard working solution (acetonitrile preparation) was added to 20 μL of the sample, and the mixture was vortexed for mixing for 5 min and centrifuged for 5 min (14000 rpm). 4 μL of the supernatant was analyzed by LC-MS/MS (API 6500+).

[3] = tested on: OVCAR3 subcutaneous tumor model; assay: Efficacy in OVCAR3 subcutaneous tumor model-1; assay type: in vivo, Balb/c nude mice; conditions: 3 mg/kg, single intravenous injection
From the text: Experimental reagent: Human ovarian cancer OVCAR3 cells were purchased from ATCC, RPMI-1640 medium was purchased from Gibco (Cat. No. A104910), fetal bovine serum was purchased from Excell (Cat. No. FND500), penicillin-streptomycin was purchased from Gibco (Cat. No. 15140122), bovine insulin was purchased from Yeasen (Cat. No. 40107ES60), 0.25% trypsin-EDTA was purchased from Gibco (Cat. No. 25200-072), D-PBS (phosphate-buffered saline without calcium and magnesium ions) was purchased from Hyclone (Cat. No. SH30256.01), and Matrigel was purchased from Corning (Cat. No. 356237).
Animal information: Balb/c nude mice, female, 5-6 weeks, weight about 14-20 g, purchased from Beijing Vital River Biotechnology Co., Ltd. The mice were bred in SPF-rated environment with air exhaust for each cage individually. All animals had free access to standard certified commercial laboratory diets and water.
Cell culture: The human ovarian cancer OVCAR3 cell strain was cultured in vitro under the conditions of RPMI-1640 added with 20% fetal bovine serum, 1% penicillin-streptomycin, and […] bovine insulin, and an incubator at 37° C. with 5% CO2. The cells were digested with a 0.25% trypsin-EDTA digestive solution once a week for passaging as per conventional practice. When the cell saturation was 80%-90% and a required amount was achieved, the cells were collected and counted.
Cell inoculation: 0.1 mL of OVCAR3 cell suspension (containing 1×10^7 cells, RPMI-1640: Matrigel, volume ratio 1:1) was inoculated subcutaneously into the axilla of each mouse. On day 26 after inoculation of the cells, the mice were randomly grouped and administrated based on tumor volume.
The day when random grouping was performed was day 0.
Tumor diameters were measured twice weekly using a vernier caliper. The tumor volume was calculated using the following formula: V=0.5a×b^2, where a and b represent the long diameter and short diameter of the tumor, respectively. Mouse body weight was measured twice weekly.

MCF7-hROR1 clone 2G2 = assay: FACS identification of MCF7 cell line stably transfected with human ROR1 protein; assay type: binding
Description: A nucleotide sequence encoding the amino acid sequence of human ROR1 (SEQ ID NO: 105) was cloned into a pLVX lentiviral vector, and viral particles were prepared in HEK293T cells. After lentivirus infection, the MCF7 cell line (purchased from Chinese Academy of Science), was selectively cultured in a DMEM (Gibco, Cat. No. 11995073) medium containing 5 μg/mL puromycin (Gibco, Cat. No. A1113803) and 10% (w/w) fetal bovine serum (ExCell Bio, Cat. No. FND500) for 1 week. Positive cell populations with different expression levels were sorted on a flow cytometer FACS Aria III (purchased from BD Biosciences) using ROR1-Ab-1 and goat anti-mouse IgG (H+L) antibody (Jackson, Cat. No. 115605006) and cultured in 96-well plates at 37° C. with 5% (v/v) CO2. After about 2 weeks, a portion of the cells were selected for expansion, and positive cell populations with better growth, higher fluorescence intensity, and better homogeneity were selected, further expanded and cryopreserved in liquid nitrogen.

Molecule: IgG subtype control (antibody)
- Mean fluorescence intensity of cells [1]: 54.7

Molecule: Pertuzumab: anti-human HER2 monoclonal antibody; VH SEQ ID NO: 3, VL SEQ ID NO: 4 [reference compound]
- EC50 (SKBR3 tumor cell): 3.73 nM

B1: ADC-DS: comparator CDH6 antibody-drug conjugate of Table 9, DAR 7.5 (conjugate, chains of the INN, looked up)
VH: EVQLVQSGAEVKKPGASVKVSCKASGYTFTRNFMHWVRQAPGQGLEWMGWIYPGDGETEYAQKFQGRVTITADTSTSTAYMELSSLRSEDTAVYYCARGVYGGFAGGYFDFWGQGTLVTVSS
VL: DIQMTQSPSSLSASVGDRVTITCKASQNIYKNLAWYQQKPGKAPKLLIYDANTLQTGVPSRFSGSGSGSDFTLTISSLQPEDFATYFCQQYYSGWAFGQGTKVEIK
modifications: deruxtecan payload, DAR 7.5
- Free small molecule % ([2]; Human plasma, incubation 0 day): 0.59%
- Free small molecule % ([2]; Human plasma, incubation 7 days): 0.72%
- Free small molecule % ([2]; Human plasma, incubation 14 days): 1.21%
- Free small molecule % ([2]; Human plasma, incubation 28 days): 1.90%
- Free small molecule % ([2]; Monkey plasma, incubation 0 day): 0.64%
- Free small molecule % ([2]; Monkey plasma, incubation 7 days): 2.28%
- Free small molecule % ([2]; Monkey plasma, incubation 14 days): 4.03%
- Free small molecule % ([2]; Monkey plasma, incubation 28 days): 9.66%
- Mean tumor volume (mm^3) Day 0 ([3]; Table 23): 154.4 mm^3
- Mean tumor volume (mm^3) Day 4 ([3]; Table 23, Day 4): 211.3 mm^3
- Mean tumor volume (mm^3) Day 7 ([3]; Table 23, Day 7): 194.1 mm^3
- Mean tumor volume (mm^3) Day 11 ([3]; Table 23, Day 11): 159.5 mm^3
- Mean tumor volume (mm^3) Day 14 ([3]; Table 23, Day 14): 131.5 mm^3
- Mean tumor volume (mm^3) Day 18 ([3]; Table 23, Day 18): 95.5 mm^3
- Mean tumor volume (mm^3) Day 22 ([3]; Table 23): 73.6 mm^3
- Mean tumor volume (mm^3) Day 25 ([3]; Table 23, Day 25): 66.0 mm^3
- Mean tumor volume (mm^3) Day 28 ([3]; Table 23, Day 28): 77.8 mm^3
- TGI (%) Day 28 ([3]; Table 23, Day 28): 110.6%
- Mean tumor volume (mm^3) Day 0 ([3]; Table 24): 145.0 mm^3
- Mean tumor volume (mm^3) Day 5 ([3]; Table 24, Day 5): 165.9 mm^3
- Mean tumor volume (mm^3) Day 8 ([3]; Table 24, Day 8): 153.4 mm^3
- Mean tumor volume (mm^3) Day 12 ([3]; Table 24, Day 12): 91.4 mm^3
- Mean tumor volume (mm^3) Day 16 ([3]; Table 24, Day 16): 56.2 mm^3
- Mean tumor volume (mm^3) Day 19 ([3]; Table 24, Day 19): 41.2 mm^3
- Mean tumor volume (mm^3) Day 22 ([3]; Table 24): 28.9 mm^3
- Mean tumor volume (mm^3) Day 27 ([3]; Table 24, Day 27): 23.4 mm^3
- TG (%) Day 27 ([3]; Table 24, Day 27): 134.2%

B2: ROR1-Ab-1: anti-human ROR1 monoclonal antibody, variable region sequence from patent WO2020198531A2; SEQ ID NO: 80/81 (antibody, V domains shown)
VH: QVQLQESGPGLVKPSQTLSLTCTVSGYAFTAYNIHWVRQAPGQGLEWMGSFDPYDGGSSYNQKFKDRLTISKDTSKNQVVLTMTNMDPVDTATYYCARGWYYFDYWGHGTLVTVSS
VL: DIVMTQTPLSLPVTPGEPASISCRASKSISKYLAWYQQKPGQAPRLLIYSGSTLQSGIPPRFSGSGYGTDFTLTINNIESEDAAYYFCQQHDESPYTFGEGTKVEIK
- Mean fluorescence intensity of cells (MCF7-hROR1 clone 2G2): 26497
